# Assay results taken from the nanobody polyreactivity screen of Harvey et al. (2022).
# Experiment: yeast display, Sf9 membrane polyspecificity reagent, FACS + sequencing; frameworks hold sequencing errors
# Method in brief: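 Polyreactivity labels are assigned by the sorting gate from which each nanobody was recovered. The gates were low and high (top ~1%), set on anti-HA fluorescence for expression and streptavidin fluorescence for reagent binding. Before sorting, galactose-induced (36–48 hours) yeast display cells were stained for 1 hour at 4 °C with 10% biotinylated, detergent-solubilized Sf9 membrane reagent.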
row,Sequence,polyreactivity (PSR sort gate)
1,QVQLVESGGRLLQAGGSLRLSCAASGRTFRRYAMGWYRPAPGKERELLAAISASGGSTYYADSVKGRFTISRDNAKNTVYLQMNSLKPEDTAVYYCAADWYSYLHGTKYGYWGQGTQVTVSS,high polyreactivity
2,QVQLVESGGRLVQAGGILRLSCAASGRIFAYYAMGWYRHSPGKERELVAAINWSGDGTNYADSVKGRFTISRDNEKNSVYLQMNSLKPEDTAVYYWNADWTSYGFGTRLDYWGQGTQVTVSS,low polyreactivity
3,QVQLVESGGRLVQAGGRLRLSCAASGRIFRYYTLGWYRQAPGKERELVAAITRRGGITNYADSVKGRFTISRDNAKNTVYLQMNSLKPEDTAVYYCAAKYVSQGYDYWGQGTQVTVSS,high polyreactivity
4,QVQLVESGGRLVQAGGSHRLRCAASGFIFKHNAMGWYRQAPGQEREFVARISWSGGSTRYADSVKGRFTISRDNAKNTVYLQMNSLKPEDTAVYYCAADQLGNDMDYWGQGTQVTVSS,low polyreactivity
5,QVQLVESGGRLVQAGGSLRISCAASGSTFNGNVIVWSRQAPGKERELVAGISKSGGTTYYADSVKGRFTISRDNAKNTVYLQMNSLKPEDTAVYYCAARGRVRYYPQYDYWGQGTQVTVSS,high polyreactivity
6,QVQLVESGGRLVQAGGSLRLICAASGGIFGFNAMGWYRQAPGKERELVADISDGVRTNYADSVKWRFTISRDNAKNTVFLQMNSLKPEDTAVNYCATDGVYYVDGSWTLGYWGLGTQVTVSS,low polyreactivity
7,QVQLVESGGRLVQAGGSLRLICAASGITYYEYAMGWYRQAPGKERELVAAITSGGTTNYADSVNGRFTISLDNAKNTVYLQMNSLKPEDTAVYFCAADLIGYSYPDEYYGKGEYDYWGQGTQVTVSS,low polyreactivity
8,QVQLVESGGRLVQAGGSLRLICAASGRIFKQYAMGWYRQSPGKERELVARITGSGSRTYYADSVKGRFTISRDNAKITVYIQMKSLKPEDTAVYYCAKDRYYGKRGGAWYDYWGQGTQVTVSS,low polyreactivity
9,QVQLVESGGRLVQAGGSLRLRCAASGSTIPYNAMGWYRQAPGKERELLAAITSGGSTNYADSVKGRFTISRDNAMNTVYLQMNSLKPEDTAVYYCNADSSGWFPFDYWGQGTQVTVSS,low polyreactivity
10,QVQLVESGGRLVQAGGSLRLSCAASGFIFDSYAMGWYRQAPGKERELVAAISWSGGRTYYADSVKGRFTISRDNAKNTVYLQMNSLKPEDTAVYYCNVRTKLSTSYDYWGQGTQVTVSS,high polyreactivity
11,QVQLVESGGRLVQAGGSLRLSCAASGFIFEWNAKGWYRQAPGKERELVASITFGGGNTYYADSVKGRFTISRDYAQNTDYLQMNSLKPEDTAVYYCAVDYGYWRDSIALGEFDYWGQGTQVTVSS,low polyreactivity
12,QVQLVESGGRLVQAGGSLRLSCAASGFTFPTYAMGWYRQAPGKERELVAAITRGGSTYYADSVKGRFTISRDNAKNTVYLQMNSLKPEDTAVYYCAADDPWYEEDYWGQGTQVTVSS,low polyreactivity
13,QVQLVESGGRLVQAGGSLRLSCAASGIIFSGYAMGRYRPAPGTVREFVAAIDSVTSTYYADSVKGRFTTSRDNANNTVYLQMISLKPEVTAVYYCNARSDCTWYTLDYWGQGTQVTVSS,high polyreactivity
14,QVQLVESGGRLVQAGGSLRLSCAASGIIFVSYMGWYIQAPGQERELVAAIRWSGGRTYYADSVKGRFTISRDNAKNTVYLQMTSLKPEDTAVYNCATAPYICAYSLPHHDSWGQGTQVTVSS,high polyreactivity
15,QVQLVESGGRLVQAGGSLRLSCAASGIIFYVYAMGWYRQAPGKERELVAAISSSGGSTYYADSVKGRFTISRDNAKNTVYLQMNSLKPEDSAVYYCAAVSSGYDDWGQGTQVTVTS,high polyreactivity
16,QVQLVESGGRLVQAGGSLRLSCAASGIIIRKYARGWYRPAPGKVRELVAAITTRGSRTYSADSVKGRFTISRDNAKNTVYLQMNSLKPEDTAVYYCAADRYTVRMDYWGQGTQVTVSS,high polyreactivity

row,Sequence,polyreactivity (PSR sort gate)
1,QVQLVESGGRLVQAGGSLRLSCAASGITFYYYAMGWYRQAPGKERELVAAISSGGTRTYYADSVKGRFTISRDNAKNTVYLQMNSLKPEDTAVYYCAAPTYWHPTYDYWGQGTQVTVSS,high polyreactivity
2,QVQLVESGGRLVQAGGSLRLSCAASGRIFANYAMGWYRQAPGKERELVAAISRSGGSTSYADSVKGRFTISRDNAKNTVYLQMNSLKTEDTAVYYCAATRSRYQPVKYGYWGQGTQVTVTS,high polyreactivity
3,QVQLVESGGRLVQAGGSLRLSCAASGRIFAYYAMGWYRQAPGKERELVAAISRSGVSTYYADSVKGRFTISRDNAKNTVYLQMNSLKPEDTAVYYCAARWRSGFTSGDYWGQGTQVTVSS,low polyreactivity
4,QVQLVESGGRLVQAGGSLRLSCAASGRIFDGNAMGWYRQAPGKERELVAAISWTGGSTYYADSVKGRFTISRDNAKNTVYLQMNSLKPEDTAVYYCAADSGWWLDQWSWYDYWGQGTQVTVSS,low polyreactivity
5,QVQLVESGGRLVQAGGSLRLSCAASGRIFGRYAMGWYRQAPGKERELVAAISSSGGSTYYADSVKGRFTISRDNAKNTVYLQMNSLKPEDTAVYYCAAEIIKVAYRVAYYYWGQGTQVTVSS,high polyreactivity
6,QVQLVESGGRLVQAGGSLRLSCAASGRIFKSYAMGWDRQAPGKERELVAAISRSGGRTYYADSVKGRFTISRDTAKNTVYLQMICLKPEDTAVYFCAGTTIVAPYWGQGTQVTVST,low polyreactivity
7,QVQLVESGGRLVQAGGSLRLSCAASGRIFRGYAMGWYRQEPGKERELVAAISQSGSSTYYADSVKGRFTISRDNAKNTVYLQMNSLKPEDTAVYYSAVIYVKHFGYWGLGTQVTVSS,high polyreactivity
8,QVQLVESGGRLVQAGGSLRLSCAASGRIFSINVMGWYRHAPGKERELVAAISKRGGSTYYADSVKGRFTISRDNAKNTVYLQMNSLKPEDTAVFYCAARRHYTYGNGPSRGGQMDYWGQGTQVTVSS,high polyreactivity
9,QVQLVESGGRLVQAGGSLRLSCAASGRIFTYNAMGWYTQAPGKERELVAGITRRGGSTYYADSVKGRFTISRDNAKNTVYLQMNSLKPEDTAVYYCAATYPNARRYEYWGQGTQVTVSS,high polyreactivity
10,QVQLVESGGRLVQAGGSLRLSCAASGRIFVVNAMGWYRQAPGKERELVAAIDRSGGSTYYADSVKGRFTISRDNAKNTVYLQMNSLKPEDTAVYYCNTGRRYYSYRRDYWGQGTQVTVSS,high polyreactivity
11,QVQLVESGGRLVQAGGSLRLSCAASGRIIAYNAKGWYRQAPGKERELVDAISRSGGSTYYADSVKGRFTISRDNAKNTVYLQMNSLKPEDTAVYYCAASLKVPYATMNYWGQGTQVTVSS,high polyreactivity
12,QVQLVESGGRLVQAGGSLRLSCAASGRTFARNAMGWYRQAPGKERELVAAISWSGGSTYYADSVKGRFTISRDNAKNTVYLQMNSLKPEDTAVYYCAARICYYNYWGQGTQVTVSS,high polyreactivity
13,QVQLVESGGRLVQAGGSLRLSCAASGRTFGWYAMGWYRQAPGKERELVAAINRRVGRTYYADSVKGRFTISRDNAKNTVYLQMNSLIPEDTAVYYCAVKQGFYSRALKLYYWGQGTQVTVSS,high polyreactivity
14,QVQLVESGGRLVQAGGSLRLSCAASGRTFSNAIGWDRQAPGKEREEVADISSGGSTNYADSVKGRFTISRDNAKNTVYLQMNSLKPEDTAVYYCAAVSGSLYGYSDDYWGQGTQVTVSS,low polyreactivity
15,QVQLVESGGRLVQAGGSLRLSCAASGRTFVYNAMGWYRQAPGKESELVAAISSGGGTNYADSVKGRFTISRDNAKNTVYLQMNSLKPEDTAVYYCAAGFDGSRHPGFDSWGQGTQVTVSS,low polyreactivity
16,QVQLVESGGRLVQAGGSLRLSCAASGSIFFLYAKGWYRQAPGKERELVAAISGGGGSTYYADSVKGRFTISRDIAKYTVYLLMNSLKPEDTAVYYCAALSKTRGGFWGQGTQVTVSS,high polyreactivity
